According to patent publication US20150024411A1:
Each block holds one substance with its values, some of them ahead of it.

Tests used:
[1] = biological target: murine CD4 on splenocytes (murine) (UniProt P06332); test: Pipette tip cell affinity chromatography on Strep-Tactin agarose functionalized with the GK1.5 Fab, murine splenocytes; starting sample 19,6% CD3+CD4+ (a) [b]
[2] = biological target: murine CD4 on splenocytes (murine) (UniProt P06332); test: Pipette tip cell affinity chromatography on Strep-Tactin agarose functionalized with the GK1.5 Fab, murine splenocytes; starting sample 19,6% CD3+CD4+ (a) [c]
[3] = biological target: murine CD4 on splenocytes (murine) (UniProt P06332); test: Pipette tip cell affinity chromatography on Strep-Tactin agarose functionalized with the GK1.5 Fab, murine splenocytes; starting sample 21,7% CD4+ (a) [b]
[4] = biological target: murine CD4 on splenocytes (murine) (UniProt P06332); test: Pipette tip cell affinity chromatography on Strep-Tactin agarose functionalized with the GK1.5 Fab, murine splenocytes; starting sample 21,7% CD4+ (a) [c]
[5] = biological target: human CD4 on CD4+ cells of PBMC or whole blood (human) (UniProt P01730); test: Pipette tip cell affinity chromatography on Strep-Tactin agarose functionalized with the m13B8.2 Fab, human PBMC; starting sample 52,3% CD4+ (a) [b]
[6] = biological target: human CD4 on CD4+ cells of PBMC or whole blood (human) (UniProt P01730); test: Pipette tip cell affinity chromatography on Strep-Tactin agarose functionalized with the m13B8.2 Fab, human whole blood; starting sample 1,20% CD4+ (a) [b]
[7] = biological target: human CD4 on CD4+ cells of PBMC or whole blood (human) (UniProt P01730); test: Pipette tip cell affinity chromatography on Strep-Tactin agarose functionalized with the m13B8.2 Fab, human PBMC; starting sample 52,3% CD4+ (a) [c]
[8] = biological target: human CD4 on CD4+ cells of PBMC or whole blood (human) (UniProt P01730); test: Pipette tip cell affinity chromatography on Strep-Tactin agarose functionalized with the m13B8.2 Fab, human whole blood; starting sample 1,20% CD4+ (a) [c]
[9] = biological target: human CD8 on CD8+ T cells of PBMC or whole blood (human) (UniProt P01732); test: cell affinity chromatography: Fab on Strep-Tactin Sephadex-50, human PBMC, flow cytometry of start and flow-through
UniProt P01732, sequence (P01732 22-235): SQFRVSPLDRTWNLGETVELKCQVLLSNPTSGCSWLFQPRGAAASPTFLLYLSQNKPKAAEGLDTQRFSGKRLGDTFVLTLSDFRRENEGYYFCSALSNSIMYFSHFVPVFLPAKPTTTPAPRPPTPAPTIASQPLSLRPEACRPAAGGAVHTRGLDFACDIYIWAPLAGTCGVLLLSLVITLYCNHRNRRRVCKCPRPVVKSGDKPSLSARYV

[10] = biological target: human CD8 on CD8+ T cells of PBMC or whole blood (human) (UniProt P01732); test: Cell affinity chromatography on Strep-Tactin agarose functionalized with the anti-CD8 Fab, human whole blood; starting sample 0,041% CD8+ (a) [b]
[11] = biological target: human CD8 on CD8+ T cells of PBMC or whole blood (human) (UniProt P01732); test: Cell affinity chromatography on Strep-Tactin agarose functionalized with the anti-CD8 Fab, human PBMC; starting sample 24,1% CD8+ (a) [c]
[12] = biological target: human CD8 on CD8+ T cells of PBMC or whole blood (human) (UniProt P01732); test: Flow cytometry of PBMC fractions from a Sephadex G50/Strep-Tactin column loaded with the CD8 Fab; the same marker reads 28 before selection (diagram A)
[13] = biological target: human CD8 on CD8+ T cells of PBMC or whole blood (human) (UniProt P01732); test: cell affinity chromatography: PBMC pre-incubated with Fab, Superflow Strep-Tactin column, FACS of start and wash fractions
[14] = biological target: human CD8 on CD8+ T cells of PBMC or whole blood (human) (UniProt P01732); test: Cell affinity chromatography on Strep-Tactin agarose functionalized with the anti-CD8 Fab, human PBMC; starting sample 24,1% CD8+ (a) [b]
[15] = biological target: human CD8 on CD8+ T cells of PBMC or whole blood (human) (UniProt P01732); test: Cell affinity chromatography on Strep-Tactin agarose functionalized with the anti-CD8 Fab, human whole blood; starting sample 0,041% CD8+ (a) [c]

UniProt P06332, sequence (P06332 27-457): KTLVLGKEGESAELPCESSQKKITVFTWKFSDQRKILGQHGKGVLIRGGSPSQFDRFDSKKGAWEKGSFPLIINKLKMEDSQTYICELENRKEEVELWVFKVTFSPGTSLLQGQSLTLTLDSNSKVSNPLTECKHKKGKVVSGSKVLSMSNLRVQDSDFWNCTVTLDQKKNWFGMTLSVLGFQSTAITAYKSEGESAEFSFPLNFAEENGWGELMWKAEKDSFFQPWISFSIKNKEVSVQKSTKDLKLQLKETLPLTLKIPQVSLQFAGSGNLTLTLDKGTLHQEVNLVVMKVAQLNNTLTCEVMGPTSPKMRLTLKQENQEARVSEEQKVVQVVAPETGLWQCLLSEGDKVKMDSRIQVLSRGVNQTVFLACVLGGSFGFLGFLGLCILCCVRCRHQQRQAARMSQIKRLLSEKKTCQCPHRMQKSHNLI

% CD3+CD4+ cells in the CD4-negative wash fraction [1]: 0.977%
% CD3+CD4+ cells in the biotin eluate fraction [2]: 80.8%
% CD4+ cells in the CD4-negative wash fraction [3]: 2.78%
% CD4+ cells in the biotin eluate fraction [4]: 84.7%
Substance: anti-CD4 Fab fragment with the wild-type variable domains of the CD4 binding antibody GK1.5 and two streptavidin binding modules at the C-terminus of the heavy chain

% CD4+ cells in the CD4-negative wash fraction [5]: 5.88%
% CD4+ cells in the CD4-negative wash fraction [6]: 0.144%
% CD4+ cells in the biotin eluate fraction [7]: 99.4%
% CD4+ cells in the biotin eluate fraction [8]: 70.4%
Substance: mutant Fab fragment m13B8.2 (variable domains of the CD4 binding murine antibody 13B8.2 with light chain His91Ala and heavy chain Arg53Ala, human CH1 gamma1 and human kappa constant domains, two streptavidin binding modules at the C-terminus of the heavy chain)

percent of PBMC that are CD8+ T-cells bound to the column [9]: 12.1%
percent of the CD8+ T-cells bound to the column [9]: 66%
% CD8+ cells in the CD8-negative wash fraction [10]: 0.005%
% CD8+ cells in the biotin eluate fraction [11]: 88.2%
% cells in the CD8-positive marker of the CD8 histogram, 1. elution fraction immediately with D-Biotin [12]: 67%
% cells in the CD8-positive marker of the CD8 histogram, 2. elution fraction after D-Biotin and subsequent washing [12]: 76%
% cells in the CD8-positive marker of the CD8 histogram, wash through fraction [12]: 10%
percent of CD8+ cells retarded on the column [13]: 77.8%
% CD8+ cells in the CD8-negative wash fraction [14]: 4.83%
% CD8+ cells in the biotin eluate fraction [15]: 79.8%
Substance: CD8 binding Fab fragment, heavy chain carboxy-terminally fused with a sequential arrangement of two streptavidin binding modules (IBA GmbH, catalogue number 6-8003)
